Results on 14 molecules are retold here after patent US20190127468A1 (ONCOIMMUNE, published 2019).

Assay [1] concerns the target T1, human CTLA-4Fc mutant protein M6 (human).
T1 construct: also called Mutant 6
As to the kind of experiment: ELISA on coated target; binder 10 ng/ml.

Assay [2] deals with T2, human CTLA-4Fc mutant protein M8 (human).
T2 construct: also called Mutant 8
Description: ELISA on coated target; binder 1000 ng/ml. (ELISA stands for enzyme-linked immunosorbent assay.)

In assay [3] the target is T1, human CTLA-4Fc mutant protein M6. As to the kind of experiment: ELISA on coated target; binder 1000 ng/ml.
The target in assay [4] is T3, Control IgG1-Fc (human, UniProt P01857-1 99-330 = IgG part, limits assumed).
T3 construct: domain: Fc; also called hIg-Fc; hIgG
Description: ELISA, plate-coated IgG1-Fc, biotinylated B7-1.

Assay [5] concerns the target T4, mouse CTLA4-Fc fusion protein (mouse, UniProt P09793 36-162, limits assumed).
T4 construct: also called mCTLA4-Fc; mCTLA-4; not shown: Fc portion, not described
Description: ELISA, binding to soluble mouse CTLA4-Fc (the legend gives no further details of the format).

Assay [6] addresses T4, mouse CTLA4-Fc fusion protein. As to the kind of experiment: blocking ELISA: plate B7-2, biotinylated mouse CTLA4-Fc with the antibody, HRP-streptavidin; blocked ligand B7-2.
The target of assay [7] is T5, mouse CTLA4 in cells of Ctla4 m/m (WT) mice (mouse, UniProt P09793 36-223).
T5 construct: whole, on cells; also called murine Ctla-4
As to the kind of experiment: flow cytometry, intracellular staining of CTLA4 in spleen cells of Ctla4 m/m mice, gated on CD3+CD4+.

Assay [8] has as its target T1, human CTLA-4Fc mutant protein M6. Description: ELISA on coated target; binder 100 ng/ml.
In assay [9] the target is T3, Control IgG1-Fc. Description: ELISA: hIgGFc coated on the plate (negative control), biotinylated antibody in solution, HRP-streptavidin, OD450.
Assay [10] concerns the target T4, mouse CTLA4-Fc fusion protein. As to the kind of experiment: ELISA, plate-coated mCTLA4-Fc, biotinylated antibody.
In assay [11] the target is T6, huCTLA4 (antigen of the Octet experiments) (human, UniProt P16410 37-162, limits assumed).
T6 construct: Construct of the soluble antigen not described; also called the antigen
T6 sequence (P16410 37-162 limits assumed): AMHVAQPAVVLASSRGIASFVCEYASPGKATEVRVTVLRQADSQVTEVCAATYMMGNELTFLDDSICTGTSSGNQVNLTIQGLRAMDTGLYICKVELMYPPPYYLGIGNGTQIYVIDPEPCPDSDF
Description: BLI (Octet Red96), antibody on anti-hIgG Fc biosensor, huCTLA4 in solution, 1:1 fit. Background: Biolayer interferometry detects binding as a change in optical thickness at a sensor tip.

Assay [12] concerns the target T6, huCTLA4 (antigen of the Octet …). Description: BLI (Octet), purified 0.1 L material, replicate 2.
The target is the same in assay [13]. Description: BLI (Octet), purified 0.1 L material, replicate 1.
In another assay the target is T7, M16.
T7 construct: human CTLA-4Fc mutant; also called CTLA-4Fc M16
T7 mutant human CTLA-4 extracellular domain fused to IgG1 Fc: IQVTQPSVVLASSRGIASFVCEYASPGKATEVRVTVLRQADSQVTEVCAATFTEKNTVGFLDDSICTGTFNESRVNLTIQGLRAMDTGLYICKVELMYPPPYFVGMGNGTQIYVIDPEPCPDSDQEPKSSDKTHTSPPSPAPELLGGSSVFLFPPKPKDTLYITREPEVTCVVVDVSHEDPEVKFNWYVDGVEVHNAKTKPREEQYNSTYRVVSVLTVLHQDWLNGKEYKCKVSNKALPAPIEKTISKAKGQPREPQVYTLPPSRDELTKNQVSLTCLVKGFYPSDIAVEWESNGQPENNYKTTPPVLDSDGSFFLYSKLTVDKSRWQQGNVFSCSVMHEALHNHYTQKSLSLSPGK
Description: ELISA: CTLA-4Fc protein coated on the plate, biotinylated antibody in solution, HRP-streptavidin, OD450.

The next assay addresses T8, M12.
T8 construct: human CTLA-4Fc with clusters of murine Ctla-4 residues; also called CTLA-4Fc M12
Described as above.

Another assay addresses T9, M14.
T9 construct: human CTLA-4Fc mutant; also called CTLA-4Fc M14
The description is as above.

Assay [14] deals with T3, Control IgG1-Fc. Description: ELISA: hIgGFc coated on the plate (negative control), biotinylated antibody in solution, HRP-streptavidin, OD450. The source holds these as a separate data set.

Changes are numbered by the printed parent chain. Names may count otherwise.

B1: human B7-1 Fc fusion protein (Fc fusion, UniProt P33681 35-242, looked up)
chain: VIHVTKEVKEVATLSCGHNVSVEELAQTRIYWQKEKKMVLTMMSGDMNIWPEYKNRTIFDITNNLSIVILALRPSDEGTYECVVLKYEKDAFKREHLAEVTLSVKADFPTPSISDFEIPTSNIRRIICSTSGGFPEPHLSWLENGEELNAINTTVSQDPETELYAVSSKLDFNMTTNHSFMCLIKYGHLRVNQTFNWNTTKQEHFPDN
modifications: biotinylated (sites not given)
notes: Control protein; Used biotinylated in soluble phase; also called Biotin-HB7-1; Biotin-hB7-1; not shown: Fc portion
Regarding B1, the OD450 in assay [1] was found to be 0.279 OD; in [2], 3.63 OD; in [3], 3.41 OD.

B2: human B7-1 Fc fusion protein (Fc fusion, UniProt P33681 35-242, looked up)
chain: B1 chain
notes: also called B7-1 Ig; B7-1 Ig fusion protein; not shown: Fc portion, not described
Take B2: the binding result in the assay with Control IgG1-Fc [4] is “no binding”.

B3: anti-mouse CTLA4 mAb 9D9 (antibody, V domains shown)
VH: EAKLQESGPVLVKPGASVKMSCKASGYTFTDYYMNWVKQSHGKSLEWIGVINPYNGDTSYNQKFKGKATLTVDKSSSTAYMELNSLTSEDSAVYYCARYYGSWFAYWGQGTLITVST
VL: DIVMTQTTLSLPVSLGDQASISCRSSQSIVHSNGNTYLEWYLQKPGQSPKLLIYKVSNRFSGVPDRFSGSGSGTDFTLKISRVEAEDLGVYYCFQGSHVPYTFGGGTKLEIK
Consider B3, for which the 50% effective concentration (EC50 (read off the curve)) in assay [5] is ~0.4 µg/mL. In addition, the “IC50 (read off the curve)” value in [6] is ~1 µg/mL.

B4: chimeric L3D10 antibody (antibody, V domains shown)
VH: QVQLKESGPGLVAPSQSLSITCTVSGFSLTSYGLSWVRQPPGKGLEWLGVIWYDGNTNFHSALISRLTISKDNSKSQVFLELNSLQTDDTATYYCAKTEGHYYGSNYGYYALDYWGQGTSVTVSS
VL: DIQMTQSPASLSVSVGETVTITCRASENIYSNLAWYQQKQGKSPQLLVYAATNLADGVPSRFSGSGSGTQYSLKINSLQSEDFGTYFCQHLWGTPYTFGGGTKLEIKR
notes: Biotinylated in the ELISAs; also called Chimeric Parental; PP4629
As to B4, the binding result in assay [7] is “no binding”.

B5: chimeric L3D10 antibody (antibody, V domains shown)
VH: B4 VH
VL: B4 VL
modifications: biotinylated (sites not given)
notes: Mouse L3D10 variable regions on human IgG1 with M252Y, S254T, T256E, S298A, E333A, K334A; Used biotinylated in the ELISA; also called Biotin-L3D10; PP4629
B5 registered an OD450 in assay [8] of 3.03 OD.

B6: Humanized HC1 + LC2 (PP4631) (antibody, IgG1, V domains shown)
VH: QVQLQESGPGLVKPSETLSLTCTVSGFSLTSYGLSWIRQPPGKGLEWIGYIWYDGNTNFHPSLKSRVTISKDTSKNQFSLKLSSVTAADTAVYYCAKTEGHYYGSNYGYYALDYWGQGTSVTVSS
VL: DIQMTQSPSSLSASVGDRVTITCRASENIYSNLAWYQQKQGKAPKLLLYAATNLQDGVPSRFSGSGSGTDYTLTISSLQPEDFATYFCQHLWGTPYTFGQGTKLEIK
notes: Humanized L3D10; also called H3106 + L3107; HL12
Regarding B6, the binding result with Control IgG1-Fc [9] is listed as “no binding (tested: 0.2 µg/mL)”; in assay [10], “no binding”.

B7: Humanized HC1 + LC1 (PP4630) (antibody, IgG1, V domains shown)
VH: B6 VH
VL: B6 VL with Q40P, D56S, Y71F, F87Y, Q100G
notes: Humanized L3D10; also called H3106 + L3106
On to B7, for which, in assay [11], binding was characterised by a dissociation constant (Kd) of 13 nM, the koff came to 0.0018 s⁻¹ and the kon worked out at 130000 M⁻¹ s⁻¹.

B8: Humanized HC3 + LC3 (PP4638) (antibody, IgG1, V domains shown)
VH: B6 VH with P61S, S62P, K71V, S120L
VL: B6 VL with Q40P, L48I, N53S, D56S, Y71F, F87Y, Q100G, L104V
notes: Humanized L3D10; also called H3108 + L3108
As to B8, in assay [11], the dissociation constant (Kd) was found to be 8.1 nM, the koff was found to be 0.0023 s⁻¹ and the kon turned out to be 290000 M⁻¹ s⁻¹. In assay [12], this molecule returned a Kd of 11 nM, a koff of 0.0022 s⁻¹ and a kon of 210000 M⁻¹ s⁻¹. In [13], this molecule gave a Kd of 9.4 nM, a koff of 0.0021 s⁻¹ and a kon of 230000 M⁻¹ s⁻¹.

B9: Humanized HC2 + LC2 (PP4634) (antibody, IgG1, V domains shown)
VH: B6 VH with P61S, N76S, F78V, S120L
VL: B6 VL
notes: Humanized L3D10; also called H3107 + L3107
In assay [11], B9 showed a Kd of 6.8 nM, a koff of 0.0019 s⁻¹ and a kon of 280000 M⁻¹ s⁻¹.

B10: Humanized HC1 + LC3 (PP4632) (antibody, IgG1, V domains shown)
VH: B6 VH
VL: B6 VL with Q40P, L48I, N53S, D56S, Y71F, F87Y, Q100G, L104V
notes: Humanized L3D10; also called H3106 + L3108
Regarding B10, in [11], the Kd was determined as 12 nM, the koff turned out to be 0.0019 s⁻¹ and the kon came out at 160000 M⁻¹ s⁻¹.

B11: Humanized HC3 + LC2 (PP4637) (antibody, IgG1, V domains shown)
VH: B6 VH with P61S, S62P, K71V, S120L
VL: B6 VL
notes: Humanized L3D10; also called H3108 + L3107; HL32
On to B11, for which the binding result is given as “no binding” in [10]; “no binding (tested: 0.2 µg/mL)” in the assay with M16; “no binding (tested: 0.2 µg/mL)” in the assay with M12; “no binding (tested: 0.2 µg/mL)” in the assay with M14; “no binding (tested: 0.2 µg/mL)” with Control IgG1-Fc [14].

B12: Humanized HC3 + LC1 (PP4636) (antibody, IgG1, V domains shown)
VH: B6 VH with P61S, S62P, K71V, S120L
VL: B6 VL with Q40P, D56S, Y71F, F87Y, Q100G
notes: Humanized L3D10; also called H3108 + L3106
In assay [11], B12 showed a Kd of 8.7 nM, a koff of 0.0022 s⁻¹ and a kon of 250000 M⁻¹ s⁻¹.

B13: Humanized HC2 + LC3 (PP4635) (antibody, IgG1, V domains shown)
VH: B6 VH with P61S, N76S, F78V, S120L
VL: B6 VL with Q40P, L48I, N53S, D56S, Y71F, F87Y, Q100G, L104V
notes: Humanized L3D10; also called H3107 + L3108
In [11], B13 gave a Kd of 8.4 nM, a koff of 0.002 s⁻¹ and a kon of 240000 M⁻¹ s⁻¹.

B14: Humanized HC2 + LC1 (PP4633) (antibody, IgG1, V domains shown)
VH: B6 VH with P61S, N76S, F78V, S120L
VL: B6 VL with Q40P, D56S, Y71F, F87Y, Q100G
notes: Humanized L3D10; also called H3107 + L3106
In the case of B14, in assay [11], the Kd worked out at 7.1 nM, the koff was found to be 0.0014 s⁻¹ and the association rate constant (kon) was determined as 200000 M⁻¹ s⁻¹.

As usually defined, the EC50 (read off the curve) is the concentration that produces a half-maximal response. A higher EC50 (read off the curve) goes with lower potency in that assay. Usually Kd stands for the free concentration of one partner at which half of the binding sites on the other are occupied at equilibrium, for simple one-to-one binding. Lower therefore signals tighter binding. As a reminder, the koff is the first-order rate constant of dissociation. Broadly, the kon is the rate constant with which the complex forms. The low end stands for slow association, the high end for fast association.
